According to paper PMC12804927:

Target: T1, GFP-UTP15 IDR (UniProt Q8C7V3 314-528)
T1 sequence: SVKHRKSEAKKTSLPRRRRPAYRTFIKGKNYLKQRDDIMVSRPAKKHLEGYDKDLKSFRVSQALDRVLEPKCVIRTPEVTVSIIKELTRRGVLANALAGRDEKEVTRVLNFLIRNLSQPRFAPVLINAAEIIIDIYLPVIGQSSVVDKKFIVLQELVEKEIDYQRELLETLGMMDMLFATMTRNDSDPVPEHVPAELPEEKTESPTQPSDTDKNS
Assay: EMSA

Does UCGUGUCUCGCUUGACCAUGUUCCCAGAGUCGGUGGAUGU (ssRNA) [5'ETS RNA probe] bind?
Result: binds
